This is an account of results in paper PMC8487046 (2021).

This assay has as its target acetylated BSA (AcBSA) (bovine (from the name BSA), UniProt P02769 25-607, acetylated (lysyl acetylation); extent not stated). In words: SPR. On the technique in general: In SPR one partner is held on a chip, and binding of the other changes the refractive index at the surface.

Sequence of acetylated BSA (AcBSA) (P02769 25-607): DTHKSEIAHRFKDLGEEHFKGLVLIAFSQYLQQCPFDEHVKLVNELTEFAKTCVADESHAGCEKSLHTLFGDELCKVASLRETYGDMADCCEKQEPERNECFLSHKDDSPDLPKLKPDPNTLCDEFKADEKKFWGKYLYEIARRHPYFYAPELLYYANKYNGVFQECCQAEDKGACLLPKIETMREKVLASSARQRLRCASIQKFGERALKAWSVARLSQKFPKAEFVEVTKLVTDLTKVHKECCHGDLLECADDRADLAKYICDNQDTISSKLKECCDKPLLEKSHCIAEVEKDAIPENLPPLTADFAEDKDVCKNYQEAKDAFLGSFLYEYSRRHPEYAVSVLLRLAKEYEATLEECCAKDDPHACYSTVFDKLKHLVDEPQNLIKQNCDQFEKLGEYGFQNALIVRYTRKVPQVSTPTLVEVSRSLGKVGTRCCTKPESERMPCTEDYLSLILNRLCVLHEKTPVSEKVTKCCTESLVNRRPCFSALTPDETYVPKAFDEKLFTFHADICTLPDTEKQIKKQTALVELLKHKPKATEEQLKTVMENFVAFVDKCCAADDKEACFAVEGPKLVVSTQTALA

B1: SR‐F1(20‐421), SR‐F1 ectodomain (domain or fragment)
chain: SELDPKGQHVCVASSPSAELQCCAGWRQKDQECTIPICEGPDACQKDEVCVKPGLCRCKPGFFGAHCSSRCPGQYWGPDCRESCPCHPHGQCEPATGACQCQADRWGARCEFPCACGPHGRCDPATGVCHCEPGWWSSTCRRPCQCNTAAARCEQATGACVCKPGWWGRRCSFRCNCHGSPCEQDSGRCACRPGWWGPECQQQCECVRGRCSAASGECTCPPGFRGARCELPCPAGSHGVQCAHSCGRCKHNEPCSPDTGSCESCEPGWNGTQCQQPCLPGTFGESCEQQCPHCRHGEACEPDTGHCQRCDPGWLGPRCEDPCPTGTFGEDCGSTCPTCVQGSCDTVTGDCVCSAGYWGPSCNASCPAGFHGNNCSVPCECPEGLCHPVSGSCQPGSGSRDT
Usually Kd stands for the concentration at which binding is half-saturated. A lower Kd goes with tighter binding. As to B1, the affinity, expressed as Kd, was 917 nM.
